One may read the Km as the substrate concentration at which the rate is half of its maximum. What is called kcat is the maximal rate divided by the concentration of active sites. What is called kcat/Km is the turnover number divided by the Michaelis constant.

Results on 18 molecules are retold here after US20060024289.

Data set [1] has as its system extracellular domain of VEGF-R2 (Flk1) fused to the Fc domain of mouse IgG.
The next data set relates to T1, Ac-RRVR-AMC.
T1 sequence: RRVR

The target in data set [2] is T2, Ac-IEFD-AMC.
T2 chain: XIEFDX
Kind of data set: Michaelis-Menten kinetics of fluorogenic tetrapeptide hydrolysis.

Data set [3] addresses T3, Ac-IEPD-AMC.
T3 chain: XIEPDX
The description is as above.

Data set [4] deals with T2, Ac-IEFD-AMC.
The target of data set [5] is T3, Ac-IEPD-AMC.
Data set [6] addresses T4, Ac-IKPD-AMC.
T4 chain: XIKPDX
Kind of data set: Michaelis-Menten kinetics of fluorogenic tetrapeptide hydrolysis.

Data set [7] concerns the target T4, Ac-IKPD-AMC.
A further data set concerns the target T5, Ac-IAPD-ACC.
T5 chain: XIAPDX

In data set [8] the target is T6, Ac-IETD-AMC.
T6 chain: XIETDX
Kind of data set: Michaelis-Menten kinetics of fluorogenic tetrapeptide hydrolysis.

The next data set deals with T7, Ac-LEPD-AMC.
T7 chain: XLEPDX

In data set [9] the target is T6, Ac-IETD-AMC.

Sequence of extracellular domain of VEGF-R2 (Flk1) fused to the Fc domain of mouse IgG (chain, as listed by the source): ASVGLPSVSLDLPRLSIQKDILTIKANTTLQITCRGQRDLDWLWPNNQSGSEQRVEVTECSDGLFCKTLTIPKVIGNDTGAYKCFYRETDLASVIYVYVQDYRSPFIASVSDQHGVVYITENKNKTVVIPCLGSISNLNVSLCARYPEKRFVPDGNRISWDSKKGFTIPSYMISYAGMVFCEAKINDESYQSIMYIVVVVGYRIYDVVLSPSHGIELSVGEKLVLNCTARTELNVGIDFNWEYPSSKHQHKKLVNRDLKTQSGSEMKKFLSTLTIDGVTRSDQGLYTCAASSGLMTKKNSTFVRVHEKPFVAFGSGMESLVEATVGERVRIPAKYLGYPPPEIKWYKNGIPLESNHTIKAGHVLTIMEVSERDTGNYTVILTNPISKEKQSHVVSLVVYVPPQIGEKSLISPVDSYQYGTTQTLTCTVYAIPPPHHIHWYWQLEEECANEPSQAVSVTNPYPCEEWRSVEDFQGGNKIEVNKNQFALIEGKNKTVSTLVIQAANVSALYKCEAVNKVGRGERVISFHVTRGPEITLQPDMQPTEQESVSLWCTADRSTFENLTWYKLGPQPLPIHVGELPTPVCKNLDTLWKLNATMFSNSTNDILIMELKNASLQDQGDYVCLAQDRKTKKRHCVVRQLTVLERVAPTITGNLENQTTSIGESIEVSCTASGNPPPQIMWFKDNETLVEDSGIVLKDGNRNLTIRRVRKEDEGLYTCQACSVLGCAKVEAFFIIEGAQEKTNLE

Consider “granzyme B mutein CB05 (I99A/N218A/K172D)”, for which, in data set [1], the “cleavage of purified VEGFR2-Fc (SDS-PAGE)” value (“cleavage … (SDS-PAGE)” for short) was “The purified VEGFR2-Fc is efficiently cleaved by wild-type and mutant granzyme B ... None of the protease variants (wild-type or mutant) cleave the Fc domain”; the “in vitro cleavage of soluble Flk1-Fc (gel, FIG. 10)” value (“in vitro cleavage” for short) was “Wild-type granzyme B and the listed muteins cleave the VEGFR-Fc receptor”.

In the case of “granzyme B mutein CB06 (I99A/N218A/Y174E)”, in data set [1], the “cleavage … (SDS-PAGE)” value was “The purified VEGFR2-Fc is efficiently cleaved by wild-type and mutant granzyme B ... None of the protease variants (wild-type or mutant) cleave the Fc domain”; the “in vitro cleavage” value was “Wild-type granzyme B and the listed muteins cleave the VEGFR-Fc receptor”.

For the molecule “granzyme B mutein CB10 (I99A/N218A/R192M)”, in data set [1], the “cleavage … (SDS-PAGE)” value is “The purified VEGFR2-Fc is efficiently cleaved by wild-type and mutant granzyme B ... None of the protease variants (wild-type or mutant) cleave the Fc domain”; the “in vitro cleavage” value was “Wild-type granzyme B and the listed muteins cleave the VEGFR-Fc receptor”.

Take “granzyme B mutein CB07 (I99A/N218A/Y174D)”: in [1], the “cleavage … (SDS-PAGE)” value was “The purified VEGFR2-Fc is efficiently cleaved by wild-type and mutant granzyme B ... None of the protease variants (wild-type or mutant) cleave the Fc domain”; the “in vitro cleavage” value was “Wild-type granzyme B and the listed muteins cleave the VEGFR-Fc receptor”.

Take “granzyme B mutein CB02 (I99A/N218A/L171E)”: in data set [1], the “cleavage … (SDS-PAGE)” value is “The purified VEGFR2-Fc is efficiently cleaved by wild-type and mutant granzyme B ... None of the protease variants (wild-type or mutant) cleave the Fc domain”; the “in vitro cleavage” value was “Wild-type granzyme B and the listed muteins cleave the VEGFR-Fc receptor”.

With MT-SP1 mutant N175D, the “cleavage … (SDS-PAGE)” value in data set [1] was “Several mutants (N175D and D217F) cleave the receptor with higher efficiency than wild-type”.

For the molecule MT-SP1 mutein CB159 (F99I/L172D/Q175D), in the data set with Ac-RRVR-AMC, the “kcat/Km (specificity constant)” value is “cut the Ac-RRVR-AMC substrate at 2.2 and 2.3×10^5 M^-1s^-1, respectively”; the “preference of RRVR over RQAR substrate (ratio of kcat/Km)” value is recorded as “prefer RRVR to RQAR by greater than 8 fold”.

As for MT-SP1 mutant D217F, the “cleavage … (SDS-PAGE)” value in data set [1] is “Several mutants (N175D and D217F) cleave the receptor with higher efficiency than wild-type”.

On to MT-SP1 mutein CB155 (Y146D/K224F), for which, in the data set on Ac-RRVR-AMC, the “kcat/Km (specificity constant)” value is “cut the Ac-RRVR-AMC substrate at 2.2 and 2.3×10^5 M^-1s^-1, respectively”.

Take MT-SP1 mutein CB18 (L172D): the “cleavage … (SDS-PAGE)” value in data set [1] is “The mutant L172D cleaves full-length VEGFR2 but at a reduced rate compared to the wild-type”.

B1: rat granzyme B I99A (protein)
chain: IIGGHEAKPHSRPYMAYLQIMDEYSGSKKCGGFLIREDFVLTAAHCSGSKINVTLGAHNIKEQEKMQQIIPVVKIIPHPAYNSKTASNDIMLLKLKSKAKRSSAVKPLNLPRRNVKVKPGDVCYVAGWGKLGPMGKYSDTLQEVELTVQEDQKCESYLKNYFDKANEICAGDPKIKRASFRGDSGGPLVCKKVAAGIVSYGQNDGSTPRAFTKVSTFLSWIKKTMKKS
As to B1, the Km with Ac-IEFD-AMC [2] was 880 µM; in the data set with Ac-IEPD-AMC [3] it was 2500 µM. The kcat in the data set with Ac-IEFD-AMC [4] came out at 0.24 s⁻¹; in the data set with Ac-IEPD-AMC [5] it was 0.14 s⁻¹. The kcat/Km in the data set with Ac-IEFD-AMC [4] came to 270 M⁻¹ s⁻¹; in the data set with Ac-IEPD-AMC [5], 57 M⁻¹ s⁻¹.

B2: rat granzyme B Y174A (protein)
chain: IIGGHEAKPHSRPYMAYLQIMDEYSGSKKCGGFLIREDFVLTAAHCSGSKINVTLGAHNIKEQEKMQQIIPVVKIIPHPAYNSKTISNDIMLLKLKSKAKRSSAVKPLNLPRRNVKVKPGDVCYVAGWGKLGPMGKYSDTLQEVELTVQEDQKCESYLKNAFDKANEICAGDPKIKRASFRGDSGGPLVCKKVAAGIVSYGQNDGSTPRAFTKVSTFLSWIKKTMKKS
For B2, the Km with Ac-IEPD-AMC [3] was 1000 µM. In the data set with Ac-IEPD-AMC [5], the kcat was 0.87 s⁻¹ and the kcat/Km stood at 470 M⁻¹ s⁻¹.

B3: rat granzyme B N218A/R192E (protein)
chain: IIGGHEAKPHSRPYMAYLQIMDEYSGSKKCGGFLIREDFVLTAAHCSGSKINVTLGAHNIKEQEKMQQIIPVVKIIPHPAYNSKTISNDIMLLKLKSKAKRSSAVKPLNLPRRNVKVKPGDVCYVAGWGKLGPMGKYSDTLQEVELTVQEDQKCESYLKNYFDKANEICAGDPKIKRASFEGDSGGPLVCKKVAAGIVSYGQADGSTPRAFTKVSTFLSWIKKTMKKS
In the case of B3, the Km in the data set with Ac-IKPD-AMC [6] and with Ac-IEPD-AMC [3] was above 2000 µM each time. The Kcat/Km came out at 73 M⁻¹ s⁻¹ with Ac-IKPD-AMC [7], 10 M⁻¹ s⁻¹ in the data set with Ac-IEPD-AMC [5] and 15 M⁻¹ s⁻¹ with Ac-IAPD-ACC.

B4: rat granzyme B N218A (protein)
chain: IIGGHEAKPHSRPYMAYLQIMDEYSGSKKCGGFLIREDFVLTAAHCSGSKINVTLGAHNIKEQEKMQQIIPVVKIIPHPAYNSKTISNDIMLLKLKSKAKRSSAVKPLNLPRRNVKVKPGDVCYVAGWGKLGPMGKYSDTLQEVELTVQEDQKCESYLKNYFDKANEICAGDPKIKRASFRGDSGGPLVCKKVAAGIVSYGQADGSTPRAFTKVSTFLSWIKKTMKKS
Consider B4, for which the Km was found to be 1800 µM with Ac-IKPD-AMC [6] and 700 µM with Ac-IEPD-AMC [3]. Moreover, the figures for the kcat with Ac-IKPD-AMC [7] and with Ac-IEPD-AMC [5] were 0.38 s⁻¹ and 1.6 s⁻¹, respectively. Also, the kcat/Km worked out at 220 M⁻¹ s⁻¹ in the data set with Ac-IKPD-AMC [7] and 2200 M⁻¹ s⁻¹ with Ac-IEPD-AMC [5].

B5: rat granzyme B I99F (protein)
chain: IIGGHEAKPHSRPYMAYLQIMDEYSGSKKCGGFLIREDFVLTAAHCSGSKINVTLGAHNIKEQEKMQQIIPVVKIIPHPAYNSKTFSNDIMLLKLKSKAKRSSAVKPLNLPRRNVKVKPGDVCYVAGWGKLGPMGKYSDTLQEVELTVQEDQKCESYLKNYFDKANEICAGDPKIKRASFRGDSGGPLVCKKVAAGIVSYGQNDGSTPRAFTKVSTFLSWIKKTMKKS
Turning to B5, the figures for the Km in the data set with Ac-IEPD-AMC [3] and with Ac-IETD-AMC [8] were 500 µM and 1900 µM, respectively. Moreover, the Kcat/Km with Ac-IEFD-AMC [4] was 410 M⁻¹ s⁻¹; with Ac-IEPD-AMC [5], 510 M⁻¹ s⁻¹; with Ac-LEPD-AMC, 200 M⁻¹ s⁻¹; with Ac-IETD-AMC [9] it was 153 M⁻¹ s⁻¹. Also, the Kcat in the data set with Ac-IEPD-AMC [5] came out at 0.56 s⁻¹; with Ac-IETD-AMC [9], 0.3 s⁻¹. Besides, the “specificity constant (kcat/Km)” value with Ac-IEPD-AMC [5] was 1100 M⁻¹ s⁻¹.

B6: rat granzyme B N218A/R192A (protein)
chain: IIGGHEAKPHSRPYMAYLQIMDEYSGSKKCGGFLIREDFVLTAAHCSGSKINVTLGAHNIKEQEKMQQIIPVVKIIPHPAYNSKTISNDIMLLKLKSKAKRSSAVKPLNLPRRNVKVKPGDVCYVAGWGKLGPMGKYSDTLQEVELTVQEDQKCESYLKNYFDKANEICAGDPKIKRASFAGDSGGPLVCKKVAAGIVSYGQADGSTPRAFTKVSTFLSWIKKTMKKS
Regarding B6, the results for the Km in the data set with Ac-IKPD-AMC [6] and in the data set with Ac-IEPD-AMC [3] were above 2000 µM and 1700 µM, respectively. Moreover, the Kcat/Km with Ac-IKPD-AMC [7] was found to be 55 M⁻¹ s⁻¹; with Ac-IEPD-AMC [5], 92 M⁻¹ s⁻¹; in the data set with Ac-IAPD-ACC, 29 M⁻¹ s⁻¹. Also, the Kcat in the data set with Ac-IEPD-AMC [5] was determined as 0.16 s⁻¹.

B7: rat granzyme B I99R (protein)
chain: IIGGHEAKPHSRPYMAYLQIMDEYSGSKKCGGFLIREDFVLTAAHCSGSKINVTLGAHNIKEQEKMQQIIPVVKIIPHPAYNSKTRSNDIMLLKLKSKAKRSSAVKPLNLPRRNVKVKPGDVCYVAGWGKLGPMGKYSDTLQEVELTVQEDQKCESYLKNYFDKANEICAGDPKIKRASFRGDSGGPLVCKKVAAGIVSYGQNDGSTPRAFTKVSTFLSWIKKTMKKS
As for B7, the Km with Ac-IEFD-AMC [2] was 930 µM and The Km of the P2-Phe substrate (980 µM); in the data set with Ac-IEPD-AMC [3] it was 1800 µM; with Ac-IETD-AMC [8], 2000 µM. Also, the Kcat was determined as 0.47 s⁻¹ with Ac-IEFD-AMC [4], 0.59 s⁻¹ with Ac-IEPD-AMC [5] and 0.3 s⁻¹ with Ac-IETD-AMC [9]. For the same molecule, the Kcat/Km with Ac-IEFD-AMC [4] turned out to be 505 M⁻¹ s⁻¹; in the data set with Ac-IEPD-AMC [5] it was 330 M⁻¹ s⁻¹; with Ac-LEPD-AMC it was 12 M⁻¹ s⁻¹; in the data set with Ac-IETD-AMC [9], 150 M⁻¹ s⁻¹. For the same molecule, the kcat entry in the data set with Ac-IEPD-AMC [5] is “kcat is 0.47 s^-1 and 0.55 s^-1, respectively”.

B8: rat granzyme B N218T (protein)
chain: IIGGHEAKPHSRPYMAYLQIMDEYSGSKKCGGFLIREDFVLTAAHCSGSKINVTLGAHNIKEQEKMQQIIPVVKIIPHPAYNSKTISNDIMLLKLKSKAKRSSAVKPLNLPRRNVKVKPGDVCYVAGWGKLGPMGKYSDTLQEVELTVQEDQKCESYLKNYFDKANEICAGDPKIKRASFRGDSGGPLVCKKVAAGIVSYGQTDGSTPRAFTKVSTFLSWIKKTMKKS
As for B8, the Km in the data set with Ac-IKPD-AMC [6] came to 1800 µM; in the data set with Ac-IEPD-AMC [3] it was 580 µM. Also, the Kcat is 1.1 s⁻¹ with Ac-IKPD-AMC [7] and 3.6 s⁻¹ with Ac-IEPD-AMC [5]. Moreover, the results for the Kcat/Km with Ac-IKPD-AMC [7] and with Ac-IEPD-AMC [5] were 600 M⁻¹ s⁻¹ and 6200 M⁻¹ s⁻¹, respectively.
